For data set [1], the target named is T1, His6-MgrA (Staphylococcus aureus NCTC8325) (UniProt Q2G0B1).
T1 sequence: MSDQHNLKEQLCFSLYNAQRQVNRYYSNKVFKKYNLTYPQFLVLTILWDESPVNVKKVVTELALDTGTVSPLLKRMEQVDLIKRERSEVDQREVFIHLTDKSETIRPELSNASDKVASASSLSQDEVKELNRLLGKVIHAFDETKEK
Briefly: EMSA. The following applies: EMSA: 50 mM Tris-HCl pH 8.0, 200 mM NaCl, 25°C, 1 h, DNase I footprinting: 20 mM Tris-HCl pH 8.0, 100 mM NaCl, 5 mM MgCl2, 1 mM CaCl2, 2 mM DTT. (Mobility shift assays separate free from complexed probe on a gel.)

The target in data set [2] is T1, His6-MgrA (Staphylococcus aureus NCTC8325). The data set is described as follows: competition. The following applies: EMSA: 50 mM Tris-HCl pH 8.0, 200 mM NaCl, 25°C, 1 h, DNase I footprinting: 20 mM Tris-HCl pH 8.0, 100 mM NaCl, 5 mM MgCl2, 1 mM CaCl2, 2 mM DTT.

For “ACTTAAATACGAATTCAGGCAACTTAATTGTGTTAAATACAGTTTTGAATGCCTAACTGTATTTCTTTTCTCTTTAAAATACAGTTAAGTACATTATAAGATGTTGTGCGGATAAACAAACTAATTGCATCAAATTTATTTTAAAATAACAACAACAAAACGTTAAGCGAATAACATTTCGGTGATTTAAAAGCTACGCACGTTTTTGTTATCTTCAAATTTAAATTTTAAGGAGTGTTTTCAATGGAAGGTT (double strand) [psmβ promoter fragment (Ppsmβ-biotin), 243 bp]”, the binding entry in data set [1] is “binds”.

In the case of “ACTTAAATACGAATTCAGGCAACTTAATTGTGTTAAATACAGTTTTGAATGCCTAACTGTATTTCTTTTCTCTTTAAAATACAGTTAAGTACATTATAAGATGTTGTGCGGATAAACAAACTAATTGCATCAAATTTATTTTAAAATAACAACAACAAAACGTTAAGCGAATAACATTTCGGTGATTTAAAAGCTACGCACGTTTTTGTTATCTTCAAATTTAAATTTTAAGGAGTGTTTTCAATGGAAGGTT (double strand) [unlabeled psmβ promoter fragment (Ppsmβ), 243 bp]”, the binding entry in data set [2] was “binds”.

The values above are taken from publication PMC6070752.
